Assay results: the nanobody polyreactivity screen of Harvey et al. (2022)

Assay: yeast display, Sf9 membrane polyspecificity reagent, FACS + sequencing; frameworks hold sequencing errors
Method in brief: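 Synthetic nanobody libraries on Saccharomyces cerevisiae BJ5465 were galactose-induced for 36–48 hours, stained 1 hour at 4 °C with 10% biotinylated, detergent-solubilized Sf9 membrane reagent and enriched on streptavidin microbeads. FACS then separated cells into low and high (top ~1%) gates by anti-HA (expression) and streptavidin (reagent binding) fluorescence. Genes were colony-PCR amplified, MiSeq 2 × 250 sequenced and CDR-length filtered. A clone's polyreactivity label is that of its gate of origin.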

Sequence	polyreactivity (PSR sort gate)
QVQLEESGGGLVQAGGSLRLSCAASGSTYYYYAMGWYRQAPGKERELVAAISRSGITYYADSVKGRFTISRDNAKNTVYLQMNSLKPEDTAVYYCAAGRRFDQSMYYWGQGTQVTVSS	high polyreactivity
QVQLVESGGGLVQAGGSLRLSCAASGSTFAVNAMGWYRQAPGKERELVAVITSSGGRTYADSVKGRFTISRDNAKNTVYLQMNSLKPEDTAVYYCAAVQGKVRGGYYWGQGTQVTVSS	high polyreactivity
QVQLVESGGGLVQAGGSLRLSCAASGFTFRWYAMGWYRQAPGKERELVADITRHGGSTYYADSVKGRFTISRDNAKNTVYLQMNSLKPEDTAVYYCAKQNETPWQAYYFDWPEFDYWGQGTQVTVSS	low polyreactivity
QVQLVESGGGLVQAGGSLRLSCAASGLTFRINAMGWYRQAPGKERELVAAITDSGTSTSYADSVKGRFTISRDNAKNTVYLQMKSLKPEDTAVYYCAADVRPGYYLYRSWGAYDYWGQGTQVTVSS	low polyreactivity
QVQLVESGGGLVQAGGSLRLSCAASGITFRSYAMGWYRQAPGKERELVAAISQSGTSTYYADSVKGRFTISRDNAKNTVYLQMNSLKPEDTAVYYCAASYYLKLRRRRYDYWGQGTQVTVSS	high polyreactivity
QVQLVESGGGLVQAGGSLRLSCAASGRTFGGNTMGWSRQAPGKERELVAAISSGGSTYYADSVKGRFTISRDNAKNTVYLQMNSLKPEDTAVYYCAKSDPVGYYWDDPVTFDYWGQGTQVTVSS	low polyreactivity
QVQLVESGGGLVQAGGSLRLSCAASGSTFWYYDMGWYRQAPGKERELVAAITSGGRTNYADSVKGRFTISRDNAKNTVYLQMNSLKPEDTAVYYCNAVSYGKYVFQDGDYWGQGTQVTVSS	high polyreactivity
QVQLVESGGGLVQAGGSLRLSCAASGIIFSDYAMGWYRQAPGKERELVAAITGGGSTYYADSVKGRFTISRDNAKNTVYLQMNRLKPEDTAVYYCNADWARLLIRSTEFDYWGQGTQVTVSS	low polyreactivity
QVQLVESGGGLVQAGGSLRLSCAASGLTLPSYVMGCYRQAPGKERELVAAISNSGGSTYYADSVKGRFTISRDTAKNTVYLQMNSLKPEDTAVYYCAAVYGYLLYFLLLPFTRDDYWGQGTQVTVSS	high polyreactivity
QVHLVESGGGLVQAGGSLRLSCAASGITFYRYAMGWYRLAPGTERELVAAISSSGGSTYYADSVKGRFTISRDNAKNTVYLQMNSLKPEDTAVYYCAAQYNVPRDKYYFWGQGTQVTVSS	high polyreactivity
QVQLVESGGGIVQAGGSLRLSCAASGNIFGQYAMGWYRQAPGKERELVAAITTTGSTYYADSVKGRFTISRDNAKNTVYLQMNSLKPEDTAVYYCAAVRYYPISYSEYWQYGYWGQGTQVTVSS	low polyreactivity
QVQLVESGGGLVQAGGSLRLSCAASGGIFYTYAMGWYRQAPGKERELVAAISSSGGSTYYADSVKGRFTISRDNAKNTVYLQMNSLKPEDTAVYYCAKDSSTGAGARRRYGYWGQGTQVTVSS	low polyreactivity
QDQLVESVGGVVQAGGSLRLSCAASGRIIRTYAMGWYRQAPGKERELVATISYSSGRTYYADSVKGRFTISRDNAKNTVYLQMNSLKPEDTAVYYCARRRRSGSRQYYYWGQGTQVTVSS	high polyreactivity
QVQLVESGGGLVQAGGSLRLSCAASGFTFGGNPMGWYRQAPGKERELVAAIRRGGSTYYADSVKGRFTISRDNAKNTVYLQMNSLKPEDTAVYYCAAAIPGKYSNDDWGQGTQVTVSS	high polyreactivity
QVQLVESGGGLVQAGGSLRLSCAASGSIFPGNAMGWYRQEPRKERELVAAITKGDGSTNYADSVKGRFTISRDNAKNTVYLQLNSLITEDTAVYYCADRSRVFGYQGYDYWGQGTQVTVSS	low polyreactivity
QVQLVESGGGLVQAGGSLRLRCAASGFIFNYYALGWYRQAPGKERELVAAINSGGNTYYADSVKGRFTISRDNAKNPVYIKMNTLKPEDTAVYYCNRDPESVGYDYWGQGTQVTVSS	low polyreactivity
QVQLVESRGGLVQAGGSLRLSCAASGFIFNYYVMGRYRQAPGKERELVAGITKRGDRTYYADSVKGRFTISRDNAKNTVYLQMNSLKPEDTAVYYCAALARSFANSYGYWGQGTQVTVSS	high polyreactivity
QVQLVESGGGLVQAGGRLRLSCAASGSIFRIYTMGWYRQEPGKERELVAAINSGGSTNYADSVKGRFTISRDNAKNTVYLQMNSLKPEDTAVYYCAATWWQYDQGLHRYDYWGQGTQVTVSS	high polyreactivity
QVQLVESGGCLVQAGGSLRLSCAASGLTFPKYSMGWYRQAPGKERELVARISYSGASTYYADSVKGRFTISRDNEKNTVYLHMIILKPEDTAVYYCDARIYRVYYVNFAPYYYWGQGTQVTVSS	high polyreactivity
QVQLVESGGGLVQAGGSLRLSCAASGRTFVYYAMGWYRQAPGKERELVARISSSGGRTSYADSVKGRFTISRDNAKNTVYLQMNRLKPEDTAVYYCNAGRYRAGGWGVGEGYWGQGTQVTVSS	high polyreactivity
QVQLVESGGGLVQAGGSLRLSCAASGSTFAYNAMGWYRQAPGKERELVAAISYGGDDTYYADSVKGRFTISRDNAKNTVYLQMNSLKPEDTAVYYCNARSRTYRSALGNLYHYDYWGQGTQVTVSS	high polyreactivity
QVQLVESGGGLVQAGGSLRLSCAASGRTLARNAMGWYRQAPGKERELVASINGRTTRTYYADSVKGRFTISRDNAKNTVYFQMNSLKPEDPAVYYCAADPPGYVYGKRYYWGQGTQVTVSS	high polyreactivity

Sequence	polyreactivity (PSR sort gate)
QVQLVESGGGLVQAGGSLRLSCAASGFTFWYYAMGWYRQAPGKERELVAAISSNGASTYYADSVKGRFTISRDNAKNTVYLQMNSLKPEDTAVYYCNAYYDTWDSAYDYDYWGQGTQVTVSS	low polyreactivity
QVQLVESGGGLVQAGGSLRLSCAASGSILGWYAMGWYRQAPGKERQLVAAISYSGTSTYYADSVKGRFTISRDNAKNPVYLQMNSLNPEDTAVYYCNAFFSSRYYRVGSGYDYWGQGTQVTVSS	high polyreactivity
QVQLVESGVGLVQAGGSHRLSSGASGSIFSSYAMGWYRQEPVKERELVADISQSGGDTYYADSVQGRFTISRDNANNTVYLQRNSLKPEDNAVYYCAASVWYYPMDYWGKGTQVTVSS	low polyreactivity
QVQLVESGGGLVQAGGSLRLSCAASGTNGMGWYRQAPGKERELVAAISGSGGSTYYADSVKGRFTISRDNAKNTVYLQMNSLKPEDTAVYYGAADSIQYTARPYDYWGQGTQVTVSS	low polyreactivity
QVQLVESGGGLLQAGGSLRLSCAASVSIFSIYAMGWYRQAPGKERELVAAITLGGGSTYYADSVKGRFTISRDNAKNTVYLQMNCLTPEDTAVYYCAASSVYGYSYWGQGTQVTVSS	high polyreactivity
QVQLVESGGGLVQAGGSLRLSCAASGSISGYYAMGWYSQAPVKERELVASIRYTGARTYYADSVKGRFTISRDNAQNTVYLQMNSLKPEDTAVYYCAADVKRDRVWGGDYWGQGTQVTVSS	low polyreactivity
QVQLVESGGGLVQAGGSLRLSCAASGRTIDYNGMGWYRQAPGKEREMVAVISSSGGSTFYADSVKGRFTISRDNAKNTVYLQMNSLKPEDTAVYYSAADFIVAYTLHGSYDYWGQGTQVTVSS	low polyreactivity
QVKLVESGGVLVQAGGSLRITCAGSGRIFSRYVMGWYRQAPGKETEFVAYITWSGSSTFYADSVKGRFTISRDNAKNTGYLQMNSHKPEDSAVYFCAALGLLSPSPWGTHISEYDSWGQGTQVTVSS	low polyreactivity
QVQLVESGAGLVQAGGSLRLSCAASVRIFFYGMGWYIQAPGKQMELVATITSVSNTYYADSVKGRFTISRDNAKNTVYLQMNSLKPEDTAVYYCAARQDRYRYRYGYWGHGTQVTVSS	high polyreactivity
QVQLVESGGGLVQAGGSLRLSCAASGSTFSRNAMGWYRPAPGKERELVAAISSSGGRTYYADSVKGRFTISRDNAKNTVYLQMNSLKPQDTAVYYCAADWWRVEMDYWGQGTQVTVSS	low polyreactivity
QVQLEESGGGLVQAGGSLRLSCAASGSTFSYYAMGWYRQAPGKERELVAAITYSVGSTYYADSVKGRFTISRDNAKNTVYLQMNSLKPEDTAVYYCNKRYYYSRANYPYDYWGQGTQVTVSS	low polyreactivity
QVQLVESGGGLVQAGGSLRLSCAASGSTFYVYAMGWYRQAPGKEREFVAAISFSSGSTYYADSVKGRFTISRDNAKNTVYLQMNMMNQEDTAVYDCAARYRYPRYIGYGYGGAFVYWGQGTQVTVSS	high polyreactivity
QVQLVESGGGLVQAGGSLRLSCAASGSIFNIYAMGWYRQAPGKERELVATITGIADSTYYADSVKGRFTISRDNAKNTVYLQMNSLKPEDTAVYYCAAIYGSRYTTGQTRRDYYSWGQGTQVTVSS	low polyreactivity
QVQLVESGGGLVQAGGSLRLSSASSGSIFTDNGMGCYRHAPGKESELVAAISWRGGTYYADSVKGRFTISRDNAKNTVYLQMNSLKPEDSAVYYSAADVLRISTRLFRGPGFDSWGQGTQVTVSS	low polyreactivity
QVQLVESGGGLVQAGGSLRLSCAASGRTFVPNAMGWYRQAPGKERELVAAISDSGGSTYYADSVKGRFTISRDNAKNTVYLQMNSLKPEDTAVYYCATDVTTYVGWEHGFNYWGQGTQVTVSS	low polyreactivity
QVQLVESGGGLVQAGGSLRLSCAASGRIFGYAMGWYRQAPGKERELVAAITSSGGRTYYADSVKGRFTISRDNVKNTVYLQMNSLKPVDTAVYYCAKKWPVYRSYDYWGQGTQVTVSS	high polyreactivity
QVQLVESGGGLVQAGGSLRLSCAASGNTFAVNAMVWSRQAPGKERELVAAISRTGGRTYYADSVKGRFTISRDNAKNTVYLQMNSLKPEDTAVYYCAAEYYYTSQLAKYHYGYEYWGQGTQVTVSS	high polyreactivity
QVQLVESGGGLVQAGGSLRLSCAASGSIFTRNTMGWYRQAPGKERELVAAISTSGGDTYYADSVKGRFTISRDNAKNTVYLQMNSLKPEDTAVYFCAVVLVGVYFGYDYWGQGTQVTVSS	high polyreactivity
QVQLVESGGGLVQAGGSLRLSCAASGSTFKGNTMGWYRQAPGKERELVAAISWRGGSTYYADSVKGRFTISRDNAKNTVYLQMNSMKPEDTAVYYCAAKSHWWWRGYYYLGQGTQVTVSS	high polyreactivity
QVQLVESGGGLVQAGGSLRLSCAASGFIFGYYAMGWYRQAPGKERELVAAITSGGSTYYADSVKGRFTISRDNAKNTVYLQMNSLKPEDTAVYYCAAGWWYYLHMDYWGQGTQVTVSS	high polyreactivity
QVQLQESGGGLVQAGGSLLSCAASGTISWVDEMGWYRQAPGNERELVAGIAGGGNTNYADSVKGRFTISRDNAKNTVYLLMNSLDTAVYYCAVVGFGRGNHIYWGQGTQVTVSS	high polyreactivity
